Measurements published in article PMC5662623.

Key:
[1] = biological target: adaptor protein AP-3; experiment: GST pull-down from rat brain lysate, immunoblot band intensity quantification (anti-β-NAP); details: at least three independent experiments; parent: est. 1.0; read off a plot
[2] = biological target: adaptor protein AP-1; experiment: GST pull-down from rat brain lysate, immunoblot band intensity quantification (anti-adaptin γ); details: at least three independent experiments; parent: est. 1.0; read off a plot

ratio to parent [1]: 0.33 | ratio to parent [2]: 0.59
Substance: GST fusion of the WT VGLUT2 C-terminus F518G; I519G
